Reference: IntAct's records for PubMed 22792074

B1: Fanconi anemia group J protein (Homo sapiens), Q9BX63 (parent)
chain: MSSMWSEYTIGGVKIYFPYKAYPSQLAMMNSILRGLNSKQHCLLESPTGSGKSLALLCSALAWQQSLSGKPADEGVSEKAEVQLSCCCACHSKDFTNNDMNQGTSRHFNYPSTPPSERNGTSSTCQDSPEKTTLAAKLSAKKQASIYRDENDDFQVEKKRIRPLETTQQIRKRHCFGTEVHNLDAKVDSGKTVKLNSPLEKINSFSPQKPPGHCSRCCCSTKQGNSQESSNTIKKDHTGKSKIPKIYFGTRTHKQIAQITRELRRTAYSGVPMTILSSRDHTCVHPEVVGNFNRNEKCMELLDGKNGKSCYFYHGVHKISDQHTLQTFQGMCKAWDIEELVSLGKKLKACPYYTARELIQDADIIFCPYNYLLDAQIRESMDLNLKEQVVILDEAHNIEDCARESASYSVTEVQLRFARDELDSMVNNNIRKKDHEPLRAVCCSLINWLEANAEYLVERDYESACKIWSGNEMLLTLHKMGITTATFPILQGHFSAVLQKEEKISPIYGKEEAREVPVISASTQIMLKGLFMVLDYLFRQNSRFADDYKIAIQQTYSWTNQIDISDKNGLLVLPKNKKRSRQKTAVHVLNFWCLNPAVAFSDINGKVQTIVLTSGTLSPMKSFSSELGVTFTIQLEANHIIKNSQVWVGTIGSGPKGRNLCATFQNTETFEFQDEVGALLLSVCQTVSQGILCFLPSYKLLEKLKERWLSTGLWHNLELVKTVIVEPQGGEKTNFDELLQVYYDAIKYKGEKDGALLVAVCRGKVSEGLDFSDDNARAVITIGIPFPNVKDLQVELKRQYNDHHSKLRGLLPGRQWYEIQAYRALNQALGRCIRHRNDWGALILVDDRFRNNPSRYISGLSKWVRQQIQHHSTFESALESLAEFSKKHQKVLNVSIKDRTNIQDNESTLEVTSLKYSTSPYLLEAASHLSPENFVEDEAKICVQELQCPKIITKNSPLPSSIISRKEKNDPVFLEEAGKAEKIVISRSTSPTFNKQTKRVSWSSFNSLGQYFTGKIPKATPELGSSENSASSPPRFKTEKMESKTVLPFTDKCESSNLTVNTSFGSCPQSETIISSLKIDATLTRKNHSEHPLCSEEALDPDIELSLVSEEDKQSTSNRDFETEAEDESIYFTPELYDPEDTDEEKNDLAETDRGNRLANNSDCILAKDLFEIRTIKEVDSAREVKAEDCIDTKLNGILHIEESKIDDIDGNVKTTWINELELGKTHEIEIKNFKPSPSKNKGMFPGFK

Variants of: B1
Conditions: with brca1_human BRCA1, P38398
Sequence of brca1_human BRCA1, P38398 (P38398 whole entry, looked up): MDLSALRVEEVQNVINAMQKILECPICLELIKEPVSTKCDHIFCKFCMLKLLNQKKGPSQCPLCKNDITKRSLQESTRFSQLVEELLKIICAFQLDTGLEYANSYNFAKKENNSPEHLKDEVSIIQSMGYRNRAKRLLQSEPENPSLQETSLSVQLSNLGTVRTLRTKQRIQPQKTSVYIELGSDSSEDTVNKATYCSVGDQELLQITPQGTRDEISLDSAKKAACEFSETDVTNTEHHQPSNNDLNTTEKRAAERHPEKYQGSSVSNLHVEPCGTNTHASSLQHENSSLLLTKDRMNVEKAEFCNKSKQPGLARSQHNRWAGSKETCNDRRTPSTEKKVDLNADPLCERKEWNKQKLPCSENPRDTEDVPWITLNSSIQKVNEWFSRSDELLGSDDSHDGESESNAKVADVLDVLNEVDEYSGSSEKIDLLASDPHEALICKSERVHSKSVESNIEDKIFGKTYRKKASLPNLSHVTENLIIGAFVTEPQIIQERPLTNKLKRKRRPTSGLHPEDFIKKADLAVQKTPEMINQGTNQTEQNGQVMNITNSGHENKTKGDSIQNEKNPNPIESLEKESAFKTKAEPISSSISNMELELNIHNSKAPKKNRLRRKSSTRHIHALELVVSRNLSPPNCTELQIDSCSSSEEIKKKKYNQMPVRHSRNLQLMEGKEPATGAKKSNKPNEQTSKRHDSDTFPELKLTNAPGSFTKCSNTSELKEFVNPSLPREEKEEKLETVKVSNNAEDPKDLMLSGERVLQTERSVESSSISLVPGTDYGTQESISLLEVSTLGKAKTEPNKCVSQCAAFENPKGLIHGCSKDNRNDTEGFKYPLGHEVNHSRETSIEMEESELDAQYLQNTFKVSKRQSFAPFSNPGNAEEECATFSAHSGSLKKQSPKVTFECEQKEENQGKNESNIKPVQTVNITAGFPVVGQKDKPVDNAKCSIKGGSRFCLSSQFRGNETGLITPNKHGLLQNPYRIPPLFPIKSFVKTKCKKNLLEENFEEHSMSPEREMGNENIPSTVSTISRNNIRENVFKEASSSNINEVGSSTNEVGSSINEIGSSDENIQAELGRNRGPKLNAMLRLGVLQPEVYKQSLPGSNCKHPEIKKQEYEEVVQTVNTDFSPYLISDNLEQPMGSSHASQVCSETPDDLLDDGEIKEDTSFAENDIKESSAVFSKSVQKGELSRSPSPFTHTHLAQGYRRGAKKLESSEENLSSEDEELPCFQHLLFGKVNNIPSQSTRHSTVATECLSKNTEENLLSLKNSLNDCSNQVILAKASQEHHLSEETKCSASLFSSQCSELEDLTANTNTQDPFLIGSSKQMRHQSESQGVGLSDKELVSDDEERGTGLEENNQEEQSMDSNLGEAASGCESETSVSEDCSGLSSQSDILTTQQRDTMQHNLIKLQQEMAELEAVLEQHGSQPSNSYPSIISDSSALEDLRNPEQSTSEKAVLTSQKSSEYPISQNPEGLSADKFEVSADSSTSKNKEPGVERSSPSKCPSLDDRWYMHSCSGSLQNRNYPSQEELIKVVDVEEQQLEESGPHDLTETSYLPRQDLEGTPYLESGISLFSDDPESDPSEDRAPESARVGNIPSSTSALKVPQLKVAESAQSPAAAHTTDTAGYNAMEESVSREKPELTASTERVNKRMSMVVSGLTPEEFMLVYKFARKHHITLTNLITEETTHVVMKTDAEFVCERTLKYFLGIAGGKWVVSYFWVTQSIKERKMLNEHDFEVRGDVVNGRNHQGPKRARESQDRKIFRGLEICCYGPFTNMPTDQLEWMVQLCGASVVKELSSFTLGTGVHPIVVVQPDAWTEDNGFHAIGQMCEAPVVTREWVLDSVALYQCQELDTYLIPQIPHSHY
For K1249Q, the “effect of a mutation on the interaction” value was “with no effect”. In the case of K1249R, the “effect of a mutation on the interaction” value is reported as “with no effect”.
